{"source": "patent US20260193376A1", "about": "(Novo Nordisk, published 2026)", "binders": {"B1": {"name": "one-armed (OA) mAb01-9986 (antibody, V domains shown)", "VH": "EVQLVESGGGLVQPGRSLRLSCAASGFTFHDYAMHWVRQVPGKGLEWVSGISWRGDIGGYVKSVKGRFTISRDNAKNSLYLQMNSLRAEDTALYYCVKSYGSGSFYNAFDSWGQGTLVTVSS", "VL": "DIQMTQSPSTLSASVGDRVTITCRASQSISSWLAWYQQKPGKAPKFLIYKASRLERGTPSRFSGSGSGTEFSLTISSLQPDDFATYYCLEYSSYIRTFGQGTKVEIK"}, "B2": {"name": "one-armed (OA) mAb11-0107 (antibody, V domains shown)", "VH": "EVQLVESGGGLVQPGRSLKLSCAASGFTFHDYAMHWVRQVPGKGLEWVSGISWRGDIGGYVKSVKGRFTISRDNAKNSLYLQLNSLRAEDTALYYCVKSYGSGSFYNAFDSWGQGTLVTVSS", "VL": "DIQMTQSPSTLSASVGDEVTITCRASQSISSWLAWYQQKPGKAPKFLIYKAQRLDRGTPQRFSGSGSGTEFTLTISSLQPDDFATYYCLEYSSYIRTFGQGTKVEIK"}, "B3": {"name": "one-armed (OA) mAb11-0160 (antibody, V domains shown)", "VH": "EVQLVESGGGLVQPGRSLKLSCAASGFRFDDYAMHWVRQVPGKGLEWVSGISWKGDIGGYADSVKGRFTISRDNAKNSLYLQLNSLRAEDTALYYCVKSYGSGSFYNAFDSWGQGTLVTVSS", "VL": "DIQMTQSPSTLSASVGDEVTITCRASKSISSWLAWYQQKPGKAPRFLIYKASRLERGTPQRFSGSGSGTEFTLTIYSLQPDDFATYYCLEYSSYIRTFGQGTKVEIK"}, "B4": {"name": "one-armed (OA) mAb11-0173 (antibody, V domains shown)", "VH": "EVQLVESGGGLVQPGRSLRLSCAASGFTFHDYAMHWVRQAPGKGLEWVSGISWKGDIGGYVDSVKGRFTISRDNAKNSLYLQMNSLRAEDTALYYCAKSYGSGSFYNAFDSWGQGTLVTVSS", "VL": "DIQMTQSPSTLSASVGDRVTITCRASQSISSWLAWYQQKPGKAPKFLIYKASKLDRGTPSRFSGSGSGTEFTLTISSLQPDDFATYYCLEYSSYIRTFGQGTKVEIK"}, "B5": {"name": "one-armed (OA) mAb11-0164 (antibody, V domains shown)", "VH": "EVQLVESGGGLVQPGRSLKLSCAASGFRFDDYAMHWVRQVPGKGLEWVSGISWKGDIGGYADSVKGRFTISRDNAKNSLYLQLNSLRAEDTALYYCVKSYGSGSFYNAFDSWGQGTLVTVSS", "VL": "DIQMTQSPSTLSASVGDRVTITCRASQSISSWLAWYQQKPGKAPKFLIYKASRLERGTPSRFSGSGSGTEFSLTISSLQPDDFATYYCLEYSSYIRTFGQGTKVEIK"}, "B6": {"name": "one-armed (OA) mAb11-0149 (antibody, V domains shown)", "VH": "EVQLVESGGGLVQPGRSLKLSCAASGFTFDDYAMHWVRQAPGKGLEWVSGISWKGDIGGYVDSVKGRFTISRDNAKNSLYLQMNSLRAEDTALYYCVKSYGSGSFYNAFDSWGQGTLVTVSS", "VL": "DIQMTQSPSTLSASAGDEVTITCRASQSIKSWLAWYQQKPGKAPKFLIYKASRLDRGTPQRFSGSGSGTEFSLTISRLQPDDFATYYCLEYSSYIRTFGQGTKVEIK"}, "B7": {"name": "one-armed (OA) mAb11-0047 (antibody, V domains shown)", "VH": "EVQLVESGGGLVQPGRSLRLSCAASGFTFHDYAMHWVRQAPGKGLEWVSGISWRGDIKGYVDSVKGRFTISRDNAKNSLYLQLNSLRAEDTALYYCAKSYGSGSFYNAFDSWGQGTLVTVSS", "VL": "DIQMTQSPSTLSASAGDRVTITCRASKSISSWLAWYQQKPGKAPKFLIYKASRLDRGTPQRFSGSGSGTEFSLTISSLQPDDFATYYCLEYSSYIRTFGQGTKVEIK"}, "B8": {"name": "one-armed (OA) mAb11-0049 (antibody, V domains shown)", "VH": "EVQLVESGGGLVQPGRSLRLSCAASGFTFHDYAMHWVRQAPGKGLEWVSGISWRGDIKGYVDSVKGRFTISRDNAKNSLYLQLNSLRAEDTALYYCAKSYGSGSFYNAFDSWGQGTLVTVSS", "VL": "DIQMTQSPSTLSASAGDRVTISCRASQSISSWLAWYQQKPGKAPKLLIYKASRLDRGTPSRFSGSGSGTEFTLTISSLQPDDFATYYCLEYNSYIRTFGQGTKVEIK"}}, "data": [{"biological_target": "human plasma-derived Factor IXa (human, UniProt P00740 47-191; P00740 227-461)", "sequence (P00740 47-191, chain 1 of 2)": "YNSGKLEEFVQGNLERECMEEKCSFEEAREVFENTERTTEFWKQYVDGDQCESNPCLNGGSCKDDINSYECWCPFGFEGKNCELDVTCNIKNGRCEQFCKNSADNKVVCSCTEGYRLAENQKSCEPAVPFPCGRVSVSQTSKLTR", "sequence (P00740 227-461, chain 2 of 2)": "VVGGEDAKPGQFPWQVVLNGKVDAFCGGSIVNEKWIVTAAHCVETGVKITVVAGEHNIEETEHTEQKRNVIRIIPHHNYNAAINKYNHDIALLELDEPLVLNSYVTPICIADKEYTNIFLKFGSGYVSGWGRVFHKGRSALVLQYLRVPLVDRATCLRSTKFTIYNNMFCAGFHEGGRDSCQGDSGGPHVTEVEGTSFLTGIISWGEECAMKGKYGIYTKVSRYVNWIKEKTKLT", "assay": "cell-based or functional assay", "units": {"Stimulation Index, FXa generation assay, 800 nM OA antibody": "fold", "Stimulation Index, FXa generation assay, 1600 nM OA antibody": "fold"}, "values": [{"binder": "B1", "Stimulation Index, FXa generation assay, 800 nM OA antibody": 5820}, {"binder": "B2", "Stimulation Index, FXa generation assay, 800 nM OA antibody": 3260}, {"binder": "B3", "Stimulation Index, FXa generation assay, 800 nM OA antibody": 4550}, {"binder": "B4", "Stimulation Index, FXa generation assay, 1600 nM OA antibody": 8480}, {"binder": "B5", "Stimulation Index, FXa generation assay, 800 nM OA antibody": 3270}, {"binder": "B6", "Stimulation Index, FXa generation assay, 800 nM OA antibody": 3320}, {"binder": "B7", "Stimulation Index, FXa generation assay, 800 nM OA antibody": 2860}, {"binder": "B8", "Stimulation Index, FXa generation assay, 800 nM OA antibody": 1510}]}]}
